Assay results reported in article PMC12251660, “The Structural Deciphering of the α3 Helix Within ZmHsfA2’S DNA-Binding Domain for the Recognition of Heat Shock Elements in Maize”.

Biological target: ZmHsf17 (Zea mays, UniProt A0A5J6CYG6 1-373)
Assay: EMSA; EMSA/Gel-Shift buffer (Beyotime GS009; composition, salt and pH not stated), 10 uL, 25 C 30 min; 6% native PAGE in 0.5x TBE at 4 C
Settings: protein: recombinant; tags: 6xHis (stated C-terminal; pET-30a); chain copies: 3; label: biotin; blunt

Sequence of ZmHsf17 (A0A5J6CYG6 entry or part of it): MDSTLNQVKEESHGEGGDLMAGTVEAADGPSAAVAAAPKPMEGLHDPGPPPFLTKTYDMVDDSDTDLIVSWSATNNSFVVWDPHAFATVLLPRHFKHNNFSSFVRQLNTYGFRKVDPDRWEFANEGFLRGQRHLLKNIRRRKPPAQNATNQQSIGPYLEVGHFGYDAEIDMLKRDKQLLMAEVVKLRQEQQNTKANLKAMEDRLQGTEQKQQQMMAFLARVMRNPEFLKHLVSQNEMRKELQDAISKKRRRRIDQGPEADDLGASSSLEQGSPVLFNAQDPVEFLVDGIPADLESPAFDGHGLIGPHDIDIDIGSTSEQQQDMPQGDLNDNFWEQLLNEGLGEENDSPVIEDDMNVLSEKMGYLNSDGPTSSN

B1: ZmPAH1-HSE1-HSE2R16 (dsDNA)
DNA 1: TCTTCGAATTGCATAGGAAACTTCACGTCTTTTCAGCCCT
DNA 2: AGGGCTGAAAAGACGTGAAGTTTCCTATGCAATTCGAAGA
binding result: binds

B2: ZmPAH1-HSE1-HSE2M2 (dsDNA)
DNA 1: TCTTCGAATTGCATAGGAATTTTCGTTCGAACGCATTCTG
DNA 2: CAGAATGCGTTCGAACGAAAATTCCTATGCAATTCGAAGA
binding result: no binding

B3: ZmPAH1-HSE1 (dsDNA)
DNA 1: TCTTCGAATTGCATAGGAAACTTCGTTCGAACGCATTCTG
DNA 2: CAGAATGCGTTCGAACGAAGTTTCCTATGCAATTCGAAGA
binding result: no binding

B4: ZmPAH1-HSE1-HSE2L16 (dsDNA)
DNA 1: CAGCGTCACATGACGGGAATTTTCGTTCGAACGCATTCTG
DNA 2: CAGAATGCGTTCGAACGAAAATTCCCGTCATGTGACGCTG
binding result: binds

B5: ZmPAH1-HSE2 (dsDNA)
DNA 1: CAGCGTCACATGACGGGAATTTTCACGTCTTTTCAGCCCT
DNA 2: AGGGCTGAAAAGACGTGAAAATTCCCGTCATGTGACGCTG
binding result: binds
